From patent US20240294622A1 (SUZHOU TRANSCENTA THERAPEUTICS, published 2024)

T1: HGREM1-His (ACRO) (human, UniProt O60565 25-184)
T1 construct: Lys25-Asp184 of NP_037504 with C-terminal polyhistidine tag (ACRO GR1-H52H3); they are put here; also called hGREM1 (ACRO); human gremlin (ACRO)
T1 sequence: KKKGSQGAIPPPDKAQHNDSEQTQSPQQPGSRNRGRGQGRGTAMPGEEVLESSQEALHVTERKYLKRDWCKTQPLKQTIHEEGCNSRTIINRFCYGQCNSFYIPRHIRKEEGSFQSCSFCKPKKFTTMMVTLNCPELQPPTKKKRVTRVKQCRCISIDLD

T2: Mouse Gremlin-His (R&D) (mouse, UniProt O70326 25-184)
T2 construct: Lys25-Asp184 with 10xHis, R&D 956-GR; also called mouse gremlin (R&D); mGREM1
T2 sequence: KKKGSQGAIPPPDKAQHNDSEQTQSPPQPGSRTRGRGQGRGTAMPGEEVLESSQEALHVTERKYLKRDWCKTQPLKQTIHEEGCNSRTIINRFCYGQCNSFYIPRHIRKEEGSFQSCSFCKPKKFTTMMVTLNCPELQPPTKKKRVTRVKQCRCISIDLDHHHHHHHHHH

T3: XM5-Fc (human (hGREM1 with residues 123-143 …))
T3 construct: also called gremlin 1-DAN fusion protein
T3 chain: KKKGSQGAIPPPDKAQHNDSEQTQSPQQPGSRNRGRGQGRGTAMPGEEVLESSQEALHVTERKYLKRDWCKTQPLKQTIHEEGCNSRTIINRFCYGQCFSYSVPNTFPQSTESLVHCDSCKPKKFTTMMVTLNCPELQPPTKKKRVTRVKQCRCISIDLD

T4: DAN-his (Sinobiological) (human, UniProt P41271 17-181, limits assumed)
T4 construct: also called DAN (Sinobiological); human DAN-his
T4 sequence (looked up): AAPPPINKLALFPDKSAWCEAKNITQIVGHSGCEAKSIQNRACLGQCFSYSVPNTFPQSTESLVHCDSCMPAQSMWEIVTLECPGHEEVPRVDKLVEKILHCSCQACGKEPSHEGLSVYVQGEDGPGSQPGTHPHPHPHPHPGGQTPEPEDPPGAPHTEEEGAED


Key:
HGREM1-His (ACRO) [1] = biological target: T1, HGREM1-His (ACRO); assay: ELISA, coated hGREM1 (ACRO)
Experimental: (§1) Clear polystyrene plates (BEAVER) were coated with 100 μl/well of a […] hGREM1 (ACRO) and mouse gremlin (R&D) in high pH coating buffer overnight at 4° C. Then the plates were washed once on an automatic plate washer using PBS+0.1% Tween 20 (Sigma). 100 μl of block solution consisting of PBS+1% BSA+1% normal goat serum+0.5% Tween 20 (Sigma) was added to each well and incubated at room temperature for 2 hours. Then 100 μl of antibodies in antibody dilution buffer containing PBS+1% BSA+1% normal goat serum+0.01% Tween 20 starting from 2 μg/ml and then serial dilutions were added to each well of the plate and incubated for 1 hours at room temperature. Afterward the plates were washed three times with 200 μl of PBS+0.1% Tween20 followed by adding 100 μl/well 1:10000 Goat anti mouse IgG-HRP (abcam), and incubate for 1 hour at room temperature. They were then washed 3× with PBS+0.1% Tween20. Finally, 100 µl/well of TMB (Pierce) was added to each well and after several minutes add 50 μl of stop solution to each well. The plates were read on a Multiscan FC microplate reader (Thermo Scientific) at […].

HGREM1-His (ACRO) [2] = biological target: T1, HGREM1-His (ACRO); assay: blocking ELISA, Human Gremlin-1 binding to BMP2; column Percentage
Experimental: (§2) In addition, the ability of serial dilutions of antibodies provided herein to block Gremlin binding to human BMP2/4/7 was also examined via ELISA. Plates were coated with recombinant human BMP2/4/7 (0.5 μg/ml) overnight and then serial dilutions of antibodies were incubated with 1 μg/ml of human Gremlin-his modified for 1 h at RT before this complex was added to coated plates and allowed to incubate for an additional hour at RT. The plates were then washed and added with anti-his HRP (GenScript). Plates were then developed with a TMB solution and stopped by adding stop solution. The plates were read on a plate reader at 450 nm. […] The chimeric anti-gremlin 1 antibodies (69H5-chi) and chimeric anti-gremlin 1 antibodies (22F1-chi) also can inhibit the binding of gremlin to BMP2 and BMP4 (see, FIG. 3E and FIG. 3F). The chimeric anti-gremlin 1 antibodies (56C11-chi) can inhibit the binding of gremlin to BMP2 (see, FIG. 3E).

HGREM1-His (ACRO) [3] = biological target: T1, HGREM1-His (ACRO); assay: blocking ELISA, Human Gremlin-1 binding to BMP2; column OD450
Experimental: as §2

HGREM1-His (ACRO) [4] = biological target: T1, HGREM1-His (ACRO); assay: blocking ELISA, Human Gremlin-1 binding to BMP7; column OD450
Experimental: as §2

Mouse Gremlin-His (R&D) = biological target: T2, Mouse Gremlin-His (R&D); assay: ELISA, coated mouse gremlin (R&D)
Experimental: as §1

HGREM1-His (ACRO) [5] = biological target: T1, HGREM1-His (ACRO); assay: blocking ELISA, Human Gremlin-1 binding to BMP4; column OD450
Experimental: as §2

HGREM1-His (ACRO) [6] = biological target: T1, HGREM1-His (ACRO); assay: blocking ELISA, Human Gremlin-1 binding to BMP4; column Percentage
Experimental: as §2

HGREM1-His (ACRO) [7] = biological target: T1, HGREM1-His (ACRO); assay: blocking ELISA, Human Gremlin-1 binding to FGFR1
Experimental: Next, 0.25 μg/ml of gremlin was selected to test the blocking activity. The ability of antibodies to block Gremlin binding to human FGFR1-Fc was examined via ELISA. Plates were coated with recombinant FGFR1-Fc (2 μg/ml) overnight and then serial dilutions of antibodies were incubated with 0.25 μg/ml of human Gremlin-his modified for 1 h at RT before this complex was added to coated plates and allowed to incubate for an additional hour at RT. The plates were then washed and added with anti-his HRP (GenScript). Plates were then developed with a TMB solution and stopped by adding stop solution. The plates were read on a plate reader at 450 nm. […] Humanized anti-GREM1 antibodies provided herein (e.g., Hu14E3, Hu22F1) are expected to show the similar technical effect as their chimeric counterparts in blocking the binding of hGREM1 to FGFR1.

HGREM1-His (ACRO) [8] = biological target: T1, HGREM1-His (ACRO); assay: ELISA on coated Gremlin-his (column Gremlin)
Experimental: (§3) Binding affinities to hGREM1 and XM5 were also compared. Briefly, XM5-Fc or Gremlin-his […] was coated. 100 μl of block solution consisting of PBS+1% BSA+1% normal goat serum+0.5% Tween 20 (Sigma) was added to each well and incubated at room temperature for 2 hours. 4-fold serial antibody dilution from 2 μg/ml were added. Afterward the plates were washed three times with 200 ul of PBS+0.1% Tween20 followed by adding 100 μl/well 1:10000 Goat anti mouse IgG-HRP (abeam), and incubate for 1 hour at room temperature. They were then washed 3× with PBS+0.1% Tween20. Finally, 100 μl/well of TMB (InnoReagents) was added to each well and after 2 minutes add 50 ul of stop solution to each well. The plates were read on a Multiscan FC microplate reader (Thermo Scientific) at […]. The EC50 values were show in table below.

HGREM1-His (ACRO) [9] = biological target: T1, HGREM1-His (ACRO); assay: blocking ELISA, Human Gremlin-1 binding to BMP7; column Percentage
Experimental: as §2

XM5-Fc = biological target: T3, XM5-Fc; assay: ELISA on coated XM5-Fc (column XM5)
Experimental: as §3

HGREM1-His (ACRO) [10] = biological target: T1, HGREM1-His (ACRO); assay: competition ELISA, Gremlin-his binding to coated BMP7
DAN-his (Sinobiological) = biological target: T4, DAN-his (Sinobiological); assay: ELISA on coated DAN-his; unit from the axis Ab(nM); panel called FIG. 19C in the text
Experimental: (§4) Clear polystyrene plates (BEAVER) were coated with 100 μl/well of a 0.5 μg/ml human gremlin (ACRO) and DAN (Sinobiological) in high pH coating buffer overnight at 4° C. Then the plates were washed once on an automatic plate washer using PBS+0.1% Tween 20 (Sigma). 100 μl of block solution consisting of PBS+1% BSA+1% normal goat serum+0.5% Tween 20 (Sigma) was added to each well and incubated at room temperature for 2 hours. Then 100 ul of antibodies (hybridoma or chimeric antibody 36F5, chimeric antibody 67G11, chimeric antibody 42B9) in antibody dilution buffer containing PBS+1% BSA+1% normal goat serum+0.01% Tween 20 starting from 2 μg/ml (13.33 nM) and then 4 fold serial dilution were added to each well of the plate and incubated for 1 hours at room temperature. Afterward the plates were washed three times with 200 ul of PBS+0.1% Tween20 followed by adding 100 μl/well 1:10000 Goat anti mouse IgG-HRP or mouse anti-human IgG-HRP (abcam), and incubate for 1 hour at room temperature. They were then washed 3× with PBS+0.1% Tween20. Finally, 100 μl/well of TMB (InnoReagents) was added to each well and after 2 minutes add 50 ul of stop solution to each well. The plates were read on a Multiscan FC microplate reader (Thermo Scientific) at 450 nm.

HGREM1-His (ACRO) [11] = biological target: T1, HGREM1-His (ACRO); assay: ELISA on coated human Gremlin-his; unit from the axis Ab(nM); panel called FIG. 19C in the text
Experimental: as §4

EC50 (HGREM1-His (ACRO) [1]) [µg/mL] | IC50 (HGREM1-His (ACRO) [2]) [µg/mL] | IC50 (HGREM1-His (ACRO) [3]) [µg/mL] | IC50 (HGREM1-His (ACRO) [4]) [µg/mL] | EC50 (Mouse Gremlin-His (R&D)) [µg/mL] | IC50 (HGREM1-His (ACRO) [5]) [µg/mL] | IC50 (HGREM1-His (ACRO) [6]) [µg/mL] | IC50 (HGREM1-His (ACRO) [7]) [µg/mL] | EC50 (HGREM1-His (ACRO) [8]) [µg/mL] | IC50 (HGREM1-His (ACRO) [9]) [µg/mL] | EC50 (XM5-Fc) [ng/mL] | maximal blocking percentage (HGREM1-His (ACRO) [10]) [%] | EC50 (DAN-his (Sinobiological)) [nM] | EC50 (HGREM1-His (ACRO) [11]) [nM] | Binder
0.00784 | 0.548 | 0.547 | 0.848 | 0.00771 | 0.367 | 0.367 | 2.41 | 0.0126 | 0.848 | 6.65 | ≥ 50 |  |  | 67G11 (antibody, V domains shown, mouse hybridoma antibody; also called hybridoma 67G11) VH: QVQLQQSGAELARPGASVKLSCKASGYTFTSYGIGWVKQRTGQGLEWIGEIYPRSGNTYNNEKFKGKATLTADKSSRTVYMELRSLISEDSAVYFCAREGYSNNYYAMDYWGQGTSVTVFS VL: DVLMTQTPLSLPVSLGDQASISCRSSQSLVHSNGNTYLEWYLQKPGQSPKLLIYKVSNRFSGVPDRLSGSGSGTDFTLKISRVEAEDLGVYYCFQGSHVPFTFGSGTKLEIK
0.0134 |  |  |  | 0.0172 |  |  |  |  |  |  |  |  |  | 56C11 (antibody, V domains shown, mouse hybridoma antibody; also called hybridoma 56C11) VH: EVQLQQSGPELVKPGASVKISCKASGYTFTDFYMNWVKQSHGKSLEWIGDINPNNGGTSYNQKFKGKATLTVDKSSSTAYMELRSLTSEDSAVYYCARDPIYYDYDEVAYWGQGTLVTVSA VL: DVVMTQTPLSLPVSLGDQASISCRSSQSLVHSNGNTYLHWYLQKPGQSPKLLIYKVSNRFSGVPDRFSGSGSGTDFTLKISRVEAEDLGVYFCSQSTHVPLTFGAGTKLELK
 |  |  |  |  |  |  |  |  |  |  |  | 0.0203 | 0.0209 | chimeric antibody 42B9 (antibody, human IgG1, V domains shown) VH: QVQLQQSGAELARPGASVKLSCKASGYTFTSYGIGWVKQRTGQGLEWIGEIYPRSGNTYNNEKFKGKATLTADKSSRTVYMELRSLISEDSAVYFCAREGYSNNYYAMDYWGQGTSVTVFS VL: DVLMTQTPLSLPVSLGDQASISCISSQSLVHSNGNTYLEWYLQKPGLSPKLLIYKVSNRFSGVPDRLSGSGSGTDFTLRISRVEAEDLGVYYCFQGSHVPFTFGSGTKLEIK
